Assay results taken from publication PMC3554717 (2013).

B1: LYP tagged with the myc epitope, Arg620 variant (myc-LYPR) [human] / HA-CSK [not stated] (parent complex)
chain 1: MDQREILQKFLDEAQSKKITKEEFANEFLKLKRQSTKYKADKTYPTTVAEKPKNIKKNRYKDILPYDYSRVELSLITSDEDSSYINANFIKGVYGPKAYIATQGPLSTTLLDFWRMIWEYSVLIIVMACMEYEMGKKKCERYWAEPGEMQLEFGPFSVSCEAEKRKSDYIIRTLKVKFNSETRTIYQFHYKNWPDHDVPSSIDPILELIWDVRCYQEDDSVPICIHCSAGCGRTGVICAIDYTWMLLKDGIIPENFSVFSLIREMRTQRPSLVQTQEQYELVYNAVLELFKRQMDVIRDKHSGTESQAKHCIPEKNHTLQADSYSPNLPKSTTKAAKMMNQQRTKMEIKESSSFDFRTSEISAKEELVLHPAKSSTSFDFLELNYSFDKNADTTMKWQTKAFPIVGEPLQKHQSLDLGSLLFEGCSNSKPVNAAGRYFNSKVPITRTKSTPFELIQQRETKEVDSKENFSYLESQPHDSCFVEMQAQKVMHVSSAELNYSLPYDSKHQIRNASNVKHHDSSALGVYSYIPLVENPYFSSWPPSGTSSKMSLDLPEKQDGTVFPSSLLPTSSTSLFSYYNSHDSLSLNSPTNISSLLNQESAVLATAPRIDDEIPPPLPVRTPESFIVVEEAGEFSPNVPKSLSSAVKVKIGTSLEWGGTSEPKKFDDSVILRPSKSVKLRSPKSELHQDRSSPPPPLPERTLESFFLADEDCMQAQSIETYSTSYPDTMENSTSSKQTLKTPGKSFTRSKSLKILRNMKKSICNSCPPNKPAESVQSNNSSSFLNFGFANRFSKPKGPRNPPPTWNI
chain 2: MSAIQAAWPSGTECIAKYNFHGTAEQDLPFCKGDVLTIVAVTKDPNWYKAKNKVGREGIIPANYVQKREGVKAGTKLSLMPWFHGKITREQAERLLYPPETGLFLVRESTNYPGDYTLCVSCDGKVEHYRIMYHASKLSIDEEVYFENLMQLVEHYTSDADGLCTRLIKPKVMEGTVAAQDEFYRSGWALNMKELKLLQTIGKGEFGDVMLGDYRGNKVAVKCIKNDATAQAFLAEASVMTQLRHSNLVQLLGVIVEEKGGLYIVTEYMAKGSLVDYLRSRGRSVLGGDCLLKFSLDVCEAMEYLEGNNFVHRDLAARNVLVSEDNVAKVSDFGLTKEASSTQDTGKLPVKWTAPEALREKKFSTKSDVWSFGILLWEIYSFGRVPYPRIPLKDVVPRVEKGYKMDAPDGCPPAVYEVMKNCWHLDAAMRPSFLQLREQLEHIKTHELHL

Variants of: B1
Test: co-immunoprecipitation (IP anti-myc, IB HA), blot densitometry; HEK293 cells; parent: 64.8

| Variant | response |
| --- | --- |
| chain 1 R620F | 5.2 arbitrary units |
| chain 1 R700F | 30 arbitrary units |
| chain 1 R620F, chain 1 R700F | 0.03 arbitrary units |

Variants of: B1
Test: co-immunoprecipitation (IP anti-myc, IB HA), blot densitometry; transfected HEK293 cells; parent: 48.1

| Variant | response |
| --- | --- |
| chain 1 R620W | 18 arbitrary units |
| chain 1 P615A, chain 1 P618A, chain 1 P695A | 0.77 arbitrary units |
| chain 1 P615A, chain 1 P618A | 10.3 arbitrary units |
| chain 1 P695A | 23.3 arbitrary units |
| chain 1 R620W, chain 1 P695A | 0.07 arbitrary units |

Variants of: B1
Test: co-immunoprecipitation (IP anti-myc, IB HA), blot densitometry; transiently transfected HEK293 cells; pEF empty-vector lane 3.67; parent: 57.8

| Variant | response |
| --- | --- |
| chain 1 R620W | 19.5 arbitrary units |
| chain 1 I626A, chain 1 V627A | 19.1 arbitrary units |
